Measurements published in the supplement of paper PMC6757056.
± gives the standard deviation of the averaged measurements.

B1: library; a variant is named by its letters at N, in order (parent)
chain: GCUGUCACCGAGAAACUGUGAAGUAUAUCUUAAACCUGGGCACUUAAAAGAUAUAUGGAGUUAGUAGUGCAACCUGCUCGGUCUGAUGAGUCCNNNNNNGGACGAAACAGC

How the values were obtained:
cyclic di-GMP [1] = variants of: B1; assay: normalized RNA/DNA level without ligand (relative to sTRSVctl = 100) (log10 (% of sTRSVctl)); HEK293T; ligand: cyclic di-GMP (c-di-GMP-II aptamer); higher = less ribozyme self-cleavage, higher mRNA level; conditions: reporter: mCherry (pCS4076), ligand present: no
Method in brief: (§1)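 For each 6-well well, 4 µg of library plasmid encoding mCherry-linked ribozyme switches, or eGFP-linked ones in some ligand experiments, was transfected into HEK293T. Any ligand was added 1 h before transfection, and RNA was extracted with EDTA 72 h after it, then reverse-transcribed, amplified, barcoded and sequenced. RNA level was obtained by dividing RNA reads by DNA reads, normalizing to a spiked-in non-cleaving sequence or to the top sequences, then scaling and log-transforming. The top set was 25 sequences, scaling was ×100 with log10, and ≥100 DNA reads were required.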

cyclic di-GMP [2] = variants of: B1; assay: normalized RNA/DNA level with ligand (relative to sTRSVctl = 100) (log10 (% of sTRSVctl)); HEK293T; ligand: cyclic di-GMP (c-di-GMP-II aptamer); ligand concentration (+) RNA-Seq: 1 mM; higher = less ribozyme self-cleavage, higher mRNA level; conditions: reporter: mCherry (pCS4076), ligand present: yes
Method in brief: as §1

cyclic di-GMP [3] = variants of: B1; assay: FACS-Seq fitted mean relative fluorescence mCherry/BFP without ligand (log10 relative fluorescence); HEK293T; ligand: cyclic di-GMP (c-di-GMP-II aptamer); higher = higher reporter protein expression; conditions: ligand present: no
Method in brief: (§2)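 With or without ligand for 48 h, enriched HEK293T libraries carrying a lentiviral ribozyme-switch mCherry reporter and EF1α-BFP were sorted into 6 mCherry/BFP bins. Bin genomic DNA was amplified by PCR, barcoded and sequenced on MiSeq. Fluorescence was taken from normal fits to the resulting bin counts. Each fitted mean of log10(mCherry/BFP) was scaled to five spiked-in control ribozymes.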

cyclic di-GMP [4] = variants of: B1; assay: FACS-Seq fitted mean relative fluorescence mCherry/BFP with ligand (log10 relative fluorescence); HEK293T; ligand: cyclic di-GMP (c-di-GMP-II aptamer); ligand concentration (+) FACS-Seq: 1 mM; higher = higher reporter protein expression; conditions: ligand present: yes
Method in brief: as §2

Variant | normalized RNA/DNA level without ligand (log10) (cyclic di-GMP [1]) | normalized RNA/DNA level with ligand (log10) (cyclic di-GMP [2]) | FACS-Seq fitted mean (log10) (cyclic di-GMP [3]) | FACS-Seq fitted mean (log10) (cyclic di-GMP [4])
UAAAAU | 1.615 ± 0.00033 | 1.79 ± 0.099 |  | 
UAAAAC | 1.697 ± 0.003 | 1.8 ± 0.1 |  | 
UAAAAA | 1.65 ± 0.048 | 1.78 ± 0.12 |  | 
GUGGCC | 1.86 ± 0.033 | 1.97 ± 0.047 | 0.168 ± 0.017 | 0.366 ± 0.0082
GUUCAU | 1.69 ± 0.027 | 1.85 ± 0.092 | -0.4248 ± 0.00049 | -0.137 ± 0.0014
CUUGAC | 1.69 ± 0.024 | 1.83 ± 0.085 | -0.287 ± 0.2 | 0.101 ± 0.066
CUUGAA | 1.35 ± 0.11 | 1.55 ± 0.086 | -0.585 ± 0.066 | -0.291 ± 0.046
CUGAUG | 1.39 ± 0.12 | 1.58 ± 0.081 | -0.749 ± 0.029 | -0.5264 ± 0.0006
CUGAUU | 1.505 ± 0.015 | 1.71 ± 0.12 | -0.154 ± 0.084 | 0.107 ± 0.18
CUGAUA | 1.27 ± 0.11 | 1.5 ± 0.1 | -0.362 ± 0.04 | -0.182 ± 0.1
GUGAUC | 1.15 ± 0.17 | 1.27 ± 0.017 | -0.464 ± 0.047 | -0.114 ± 0.0038
GUGAUG | 1.54 ± 0.09 | 1.73 ± 0.068 | -0.401 ± 0.17 | -0.137 ± 0.01
GUGAUU | 1.621 ± 0.01 | 1.79 ± 0.088 | -0.56 ± 0.007 | -0.311 ± 0.025
CUGUAU | 1.56 ± 0.039 | 1.72 ± 0.07 | -0.00585 ± 0.097 | 0.2727 ± 0.0019
AAAAAU | 1.547 ± 0.0027 | 1.72 ± 0.13 |  | 
AAAAAG | 1.45 ± 0.09 | 1.66 ± 0.082 |  | 
AAAAAC | 1.61 ± 0.031 | 1.74 ± 0.13 |  | 
AAAAAA | 1.37 ± 0.12 | 1.6 ± 0.078 |  | 
GUUCCA | 1.65 ± 0.022 | 1.81 ± 0.12 | -0.877 ± 0.03 | -0.674 ± 0.016
GUGCAU | 1.73 ± 0.028 | 1.85 ± 0.18 | -0.575 ± 0.042 | -0.302 ± 0.062
GUUUAU | 1.652 ± 0.0032 | 1.81 ± 0.086 | -0.2549 ± 0.0013 | -0.31 ± 0.34
